Target: HLA-A2.1 (HLA-A*0201) on the surface of T2 cells (human)

B1: Influenza B nucleoprotein peptide (aa 85-94; Flu), P04665 85-94 (peptide)
peptide: KLGEFYNQMM
modifications: not checked
Median Channel of Fluorescence of HLA-A2 Expression on T2: 194

— patent US20060045883A1, “Anti-cancer vaccines” (priority 2004, published 2006)
